Measurements taken from PMC4933373, “Conformational Stability of the NH2-Terminal Propeptide of the Precursor of Pulmonary Surfactant Protein SP-B” (PLoS ONE, 2016).

Tests used:
[1] = target: the molecule itself; experiment: cross-linking; 0.26 mg/mL SP-BN in 20 mM Tris-HCl, 500 mM NaCl pH 7.0, 0.08% (v/v) glutaraldehyde for 20 s and 120 s at 20°C; SDS-PAGE and immunoblot
[2] = target: the molecule itself; experiment: AUC; sedimentation velocity, 0.15 mg/mL SP-BN in 5 mM Tris-HCl pH 7.0, 150 mM NaCl, 20°C, 48,000 rpm
[3] = target: the molecule itself; experiment: differential scanning calorimetry; 0.3 mg/mL SP-BN in 5 mM Tris-HCl pH 7, 500 mM NaCl, 20-120°C at 60°C/h; second transition fitted to the Non Two-State model with two peaks; ratio of van't Hoff to calorimetric enthalpy
[4] = target: the molecule itself; experiment: AUC; sedimentation velocity, 0.15 mg/mL SP-BN in 5 mM Tris-HCl pH 7.0, 500 mM NaCl, 20°C, 48,000 rpm; 35% of the loaded protein detected

B1: NH2-terminal propeptide of the precursor of pulmonary surfactant protein SP-B (recombinant human SP-BN) (domain or fragment, UniProt P07988 24-200, looked up)
chain: AWTTSSLACAQGPEFWCQSLEQALQCRALGHCLQEVWGHVGADDLCQECEDIVHILNKMAKEAIFQDTMRKFLEQECNVLPLKLLMPQCNQVLDDYFPLVIDYFQNQTDSNGICMHLGLCKSRQPEPEQEPGMSDPLPKPLRDPLPDPLLDKLVLPVLPGALQARPGPHTQDLSEQQ
notes: 177 amino acids, 19,902 Da from the composition; Not glycosylated (made in bacteria); also called N-terminal propeptide of proSP-B; the propeptide; source: E. coli, expressed as fusion MBP-SP-BN, purified after cleaving the fusion with factor Xa
- stoichiometry N [1]: 3
- stoichiometry N [2]: 2
- stoichiometry N [3]: ~4
- stoichiometry N [4]: 6
